This series deals with the molecule itself. Briefly: crystal structure; X-ray, 2.35 Å, space group P21, eight monomers in the asymmetric unit; crystals grown at 4°C in 100 mM HEPES pH 7.5, 200 mM CaCl2, 33.3% PEG 400; interfaces analysed with PISA.

In general, stoichiometry N refers to a count of units in the complex or per binding partner.

B1: alcohol oxidase AOX1 from Pichia pastoris (enzyme, UniProt P04842 1-663, looked up)
chain: MAIPEEFDILVLGGGSSGSCIAGRLANLDHSLKVGLIEAGENNLNNPWVYLPGIYPRNMKLDSKTASFYTSNPSPHLNGRRAIVPCANVLGGGSSINFMMYTRGSASDYDDFQAEGWKTKDLLPLMKKTETYQRACNNPDIHGFEGPIKVSFGNYTYPVCQDFLRASESQGIPYVDDLEDLVTAHGAEHWLKWINRDTGRRSDSAHAFVHSTMRNHDNLYLICNTKVDKIIVEDGRAAAVRTVPSKPLNPKKPSHKIYRARKQIVLSCGTISSPLVLQRSGFGDPIKLRAAGVKPLVNLPGVGRNFQDHYCFFSPYRIKPQYESFDDFVRGDAEIQKRVFDQWYANGTGPLATNGIEAGVKIRPTPEELSQMDESFQEGYREYFEDKPDKPVMHYSIIAGFFGDHTKIPPGKYMTMFHFLEYPFSRGSIHITSPDPYAAPDFDPGFMNDERDMAPMVWAYKKSRETARRMDHFAGEVTSHHPLFPYSSEARALEMDLETSNAYGGPLNLSAGLAHGSWTQPLKKPTAKNEGHVTSNQVELHPDIEYDEEDDKAIENYIREHTETTWHCLGTCSIGPREGSKIVKWGGVLDHRSNVYGVKGLKVGDLSVCPDNVGCNTYTTALLIGEKTATLVGEDLGYSGEALDMTVPQFKLGTYEKTGLARF
notes: Alcohol oxidase AOX1, Pichia pastoris, UniProt P04842, 663 residues as printed; identified by mass spectrometry as the host's own protein; the final crystallographic model holds residues 2 to 663 of each monomer; No tag: the protein comes from the expression host itself; also called methanol oxidase AOX1
B1: the “stoichiometry N” value was 8.
